Laboratory results taken from the domain aggregation screens of Martell et al. (2025).

Test: soluble fraction after stress (log2 fold change); higher = more stays soluble; pooled small domains, quantitative proteomics
Settings: stress: pH 4
Method in brief: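 Pooled custom libraries of small protein domains were stressed at pH 4 and then measured by high-throughput quantitative proteomics. The fold change in the amount of each domain that stays soluble after the acid stress serves as a measure of aggregation propensity. Fold changes are given on a log2 scale, and higher values mean more of the domain stayed soluble.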

Sequence	soluble fraction (log2)
HMRVQELARDLGVEADTLIALLRQMGIPVTGARSAINDAQQAKVLAKIERERRAGHSDPAKAIQAVLEEAS	0.0597
HMDPSKLVEVQEPVSMKALSEGLGIKVTELIATFAFKLKIGGKNINSMLSNDEVELVALDLERNIKVV	-0.0335
HMSKEEAIQAMKEGKKVTHRFFSSDEWMTIENGFLLLEDGVRISLEDFFNFRSDSLWDNGYELYNPH	-0.768
HMILEEIIGKNIARYREAAGLTQATLAEKIGISTAFVSRVERGQKKMKVETLYATAKVLNVSVDALLS	0.0651
HMADEIQIGLQKAIQSLPEKQKLVFSMRYYDEIPYDEMSKILDMSVGTLKTNYHYAKQKIEDFLQNH	-0.0771
HMTKQRSAIMNLLAERNTPLTAEEIGEAIAPSYPKLALSTVYRNLELFTNAGLLEKSFFQDGITRYSLTK	-0.242
HMEATEFYLEDLTGQMYNDVVNDEKYAGKIVFEKEEVQSDGEEAIGQILNQRPAGNMNVRIGTTVTLVVNA	-0.201
HMETPLSAADFKIVFGEEYEIGTDANGLPKMGSRINRQLQNRFLTWASVNKRKATMSAYQDWVASDPAAQ	-0.693
HMDAGIVVPDTYNKPLAEAVASLEGEGFRTEKKEGYSDTVAKGNVMSQNPEAGTNAERGSTVTIVISQGPQ	0.22
HMKGLDAAVVDLFKSKGASIVFAGNRLSLSGEVADQATKDELLAKAKAILASLGASVSLDDKLMVKGAKAS	0.175
HMGIVAGGTQSIATLRAIDTTDAQLYPDKILINVEDAGLYRLDRQSTATDDGNQVIKPTVGVGRWLKMTS	0.0998
HMFIKVEVPDLTGMTLTEVRKALEEKNLKMGDIRPAGQTSLVAKVINQSPQAKMVVDEYSEVSIQFEE	0.166
HMSVDVEGNQRIPTEQVLSELRDVGVSFGKRVSGLNADTIRNQMIINNDEIAWLGVNVRGSRVYVEITERI	-0.0219
HMVNGEFIDRIKVILQENNATRKKDRLTKTRMYQLLQEEGYEGSYSAFTYQVRIIEEELGINNK	≥ 0.43
HMKKISAKQQQILDYISSYSLEHGYPPSVREIGAEMGLRSPSTVHAHLKKLQEAGYLEPNEHKSRALTP	-0.0896
HMKREWKDDDPTVPAGWKVAWTTTSDNRAKIAFMSPDKKIFHSRKSALQHMLAAGTYAQSDIEKMTKGL	0.377
HMIMNLNVLANNVRRLRTAQRLSQSALASKAGLSVPAIKNLENARNEPRVNTVQVIAHALEVRLQDLFAPT	0.18
HMTELLTPKQRQVFELALREGYYDVPRRTSITEMARLLGVAKSTLSAQMHRMEATVMSTFAEEIRKQ	0.0506
HMHLLGASIAAYRKKAGMTQEDLGRALFVSGQAVSRWERGGTPDSDMLPKIADVLGISLDTLFGRS	-0.269
HMDNEIEQIVEDLNLTLSSLKYTKNQIESILPLIIKEIDDFKKKEKNISFENLLKLAMNHLDND	-1.16
HMKIEETLGKTAQVYIPIPQYLSGIGKVTLSVRGSLRELDAMTEEEKIPSNTIVRIVKVQDQVLFVKRA	-0.0641
HMNVAVGNSKLVGVAGERAYFVNGVGAAARTLSLQVGDALPTGEKVRRIERDGVTMTGASGDVRLSVLP	0.138
HMSNQLAVPDVTNMKANAAADRLRQQGLRVELKTESSNTVPRGMAIRTDPAASTMVARGGRVTLIISSGKG	-0.0724
HMYRLDVEISDEIKRDIDEETLSEIKGIIAEDPRPSYQNDETRIYRFTFAGREISFRVKDRTATVTEIL	-0.736
HMEQFDFTILRELRKRAGLSIGEVSAESGVSAAVISKLERNRTRAELDTLYRLARVFGITAAELLNLAEA	-1.76

Sequence	soluble fraction (log2)
HMGDAATVFRDHYNINSAAQAQAALDRKEALWEQPNPWRDSDNREVFDWAAQTVKDRFDSGKYKPK	-0.107
HMGTDFRPVFQYVDELVRAGEFTNLKGMIYFTDGRGIFPEKKPDYDAAFVFLDDGYDPPDVPVWAIKLVL	-0.709
HMEELTPLQKYVFDYESDISDEVDMRAIKGLENANDVYDYYANVRGWEGDPDLEDDLDNIYRQVKARFA	-1.2
HMVDLAPTEEIIKNLPNNSRSLLIPTLQKIQNAYRYLPSPAMELLSEFLNVTRAEIYGVISFYPSLL	0.129
HMRVSNADALIGRRGKANSDIRRGDYGWVAIDGDVWKSKLADDITEDIPMGAIVEVLSRDSIILTVKP	-1.08
HMGDWITGTVTRIADNGWGTFQPENAHNTVSIPPKMVADNQLKEADSIKIIAEPSPDGTKTFIKAISRE	0.214
HMNLGNLLKIYRKNSLLTQQQVADALNINRTTYTYYETGKTEPSIDTLHKLIKIFGITYDDLL	-0.337
HMLNLNILTDKEKFIAKLISRGLSDSLIAKELYISISTVRSHVNSIYGKTNIKNRSHLASSFLYFELGNLL	-0.0771
HMRAEELEQFVERLKNEVMNNFPLKELSDNELREKIENLVEIRLANVYVSIEQRVAIAEQIYSSIR	-0.633
HMDKATMRWEQIEKFLETHPYIMNADVRALFNVSAATANRILATLTTEGKLVKYREGGHWAYKY	-0.217
HMKEQLITVYVSGAVARPGLYELPAGIRAQEAVEAAGGFTEAANHEKVNLAKKLKDGSQVNVPALK	-0.107
HMTKSIDFDFREDGVYIKADKDVTIVDIVTKIDLRRIQSVDLTKIKQMLEIGSLDNWIKIAEPQMEK	-1.44
HMNSGFEVFREVVNQGSFIGAANALGISAPAVSKQIKLLENRLGLLLLYRTTRNVTLTDIGKQLFDTLDNS	-1.37
HMQETALANFETNEGVQKVKQYVQENVPSLRGSNIVGVWTSYTPEGLTNYRTRFLTQDGQFVEVNLAYQ	-0.885
HMLNERQKKIIKILKDNKNWMTGKELSEFLNVSDRTIRSDIEYINRYNNALIESNVKNGYHLNFE	-0.0338
HMNSPSKVIDISQLRKGMFVQLDLGWMSHPFAVGSFKVSTDEQIQTLRGLGLSEVRYIPEKSDPA	-0.896
HMKPFSLESYKAFVVKRLGLFPETSSAQMHDWLKEEYPDFPLITPRTVYNFVMKIRQDYGIAKV	-0.732
HMPDFAENAVYGKQREDSLYAHAYKHFQLGDTTTVRAAEHLSAEIYPLGQHRPKFMFLNAVTR	0.22
HMVDLANIDPIASSIKLNGAEADASFNTLEDRRVSVSGSFEENKNYTMEYTFKDYAGGSVTGTLDFKTLA	0.129
HMKTTKDSVFEYIQKELMTNEEYKQGINTNVIAQHFGLQRSNISTILNELVKEDRLEKTNTRPVLYFLPQ	0.184
HMKKITTANPLDINRATLAQLDTLPGIGPVTAERIIAYRSKVGRINSLDELKKISGLGGMKFEEIKPLLRV	-0.126
HMSYEDLIQAVSGHFGIEIRALLSEDRKKENMIPRQVAMYLLKNKLHYTYERIGNIFSGRNHTAVMYSV	-0.403
HMKTVPNVEGEKDGTAQSAIESAGLKVGKVTYQYDDNTSKGLVISQSVKGGEKVKPNTAIDLVVSNGPK	0.22
HMTNVNSLIGKKAIVIQDIDNLKSTGQVKIGGEIWSAQSESNDIISKDTEVEIVKIDGVKLIVRLVPV	0.225
HMGPLDIAQLKSDFLGGDAQLARRAWDQLATKAGDEGRDFLISSLGSSDPQIRNRVALGIHES	-0.152

Sequence	soluble fraction (log2)
HMGLKDTEVYMPDVRGLIEEEAQTKLKASFLTMKVSYTSSDEVKKGYVISQAPSADSVVLKGASVTVIVS	0.112
HMNIEEQVVAEVLVKDFMKQLTPRDIHILELRKNGYTYQEIAGQLGYHTHSAVKKRVDRLAEQWLAYTQGH	-0.739
HMQYQIITENGKQYYLYTVQKSEGFYSIGKRFEITNDEIIKANPEAALGLKLGQVLKIPVYK	-0.131
HMGSTATVIASRLNMRASASTTGALLTKIPNGATVTVLGTTGAWSHIRYGSYTGYVMSQYLRING	-0.211
HMSLTPSQDANRSAILDAARDLFARYGFKKTTMEDIAMALRKGKSSLYYYFKNKEDIFQAVIDS	-0.0869
HMAGTAMRATTAVNVRSGAGTNYSRIGLLQAGEQIQALSSKNGWTQVSYKGRTGYVASAYLASL	0.402
HMNRLEFLQGLKAELEGRVPHSIIQENLRYYDSYISDEAAKGQSEEDVVESLGGPRIIARTIVDAA	-0.52
HMRTSPGADYEKTYYTIQSGDNLGAIAEKMGVSVADLKDWNDISGTKIYAGKKLVIYVKKGST	-0.209
HMPPPVDLDKKGYKLRGIVLEDGRSAAFVFVPAEKRVVVLRENASGPVRLLETGMRRIRLQTPEGAGYLEL	-0.259
HMTIGLLISKARTNSGLTQAELATRAGTSQAAIARYESDRVSPSVSTLERVLRAAGEELVISSS	-0.0184
HMQISDVSLIAKVIDDVIDNNVKSVSDYLEGNLNVLRFLVGQVMKETKGKANPQKATELLQEKLESLNN	-0.386
HMNVYAGTMINVVGLQVEDAASRLRGLFYSVKIVEEESQEPDGKVLRQNIAEGTKDLEAWTLVELTVSKYV	-0.448
HMILKNVPSNLVNQRLDKVATVLFQTYSRTQIKKWILEGRLLVNGEISNPKDLVNENDEIEINPI	0.3
HMPVAPTYALTVKTDPPSANVRLLNSPTPYQPGVRLPSGNYDIEVTQSGYATRKESVRIADRDVALNIAL	0.0432
HMGSTVRIVVPAADIPAYKDIQPSDLEYREVPKDEISEDAVTDPQEVINKYSTSPLYAGWPINKNIIET	-0.202
HMNVAETITLGKRLFNHALTILGKKQRNISRKQLKNFLNDLGLKDSKDLYESIGTGDKNPILMAQLLLG	-0.0687
HMVAGHLQTKKGYYYIVLNMRTDTGARKTKWIATGIPEGGKKNLKQAEELLAKTRYTYEDMVI	0.0939
HMEKGNEEALEQAREAILAVQSGEKYVDLDPANAAIRRKQHALAQASDLVSQSYGKDPNRYVRIFR	0.367
HMGIVVDGTMTLEGVAERYGMSVGELARVIGVPPEYSNERLGRLRKSYEFEMDDIRIYIIQKQ	-1.31
HMPAELGVVVRNANLRSGPGTKYAIVGSAPAGTTVRIAGTNKAGDWYHLSSGRWIAAFLVDRN	0.34
HMSEYEYALHEFGITKKQSQRIFDRLSIADLEERINAIQTTLKQRSDIDNPAAYAWTVLNAE	-0.767
HMEVAASEQRDNLWALARRVLSGEQYDVLYLRYVEDFSVAQIADVVGKTQTHVKVLLFRGRNNLGSRLRS	-0.0684
HMPAAKARTWQEATHAFQRDFLLETLRRARFNAADAADQLGLARPALYTTAKRLGLDLVAERQRWEAEAH	0.043
HMERRDEINSVVSRYVSAITEGKYDLAEVDETGKLRVQTEGREVLPEALSRGTLEQFYFAFRMAVGSI	-0.779
HMGIDVSAFSDTALEVLRLQAAGYTTREIAQQLHITQRTVKYHASENYRKLDARNLVDAVQIAQSLHI	-0.602
